Changes are numbered by the printed parent chain. Numbers in names are those of the source. Blank lines part the entries; values can stand above or below the binder they belong to.
Columns and labels:
Settings in all cases: both partners purified
[1] = target: T1, CIN85_(1-333) (human, UniProt Q96B97 1-333, 15N-labeled in the PRE experiment; unlabeled in the HSQC titration); assay: NMR paramagnetic relaxation enhancement (1H R2-PRE); 15N-labeled CIN85_(1-333) mixed with MTSL-tagged SLP65 constructs at 10:1 molar ratio; TROSY with two-point delay; constructs without MTSL with 1 mM TCEP as diamagnetic reference; 293 K
T1 construct: CIN85 (SH3KBP1), human, residues 1-333 with the three N-terminal SH3 domains, lacking the C-terminal coiled coil; also called monomeric CIN85; source: E. coli BL21(DE3), purified (Ni-NTA, TEV cleavage, size exclusion); not shown: His7, N-terminal, cleaved
T1 sequence (looked up): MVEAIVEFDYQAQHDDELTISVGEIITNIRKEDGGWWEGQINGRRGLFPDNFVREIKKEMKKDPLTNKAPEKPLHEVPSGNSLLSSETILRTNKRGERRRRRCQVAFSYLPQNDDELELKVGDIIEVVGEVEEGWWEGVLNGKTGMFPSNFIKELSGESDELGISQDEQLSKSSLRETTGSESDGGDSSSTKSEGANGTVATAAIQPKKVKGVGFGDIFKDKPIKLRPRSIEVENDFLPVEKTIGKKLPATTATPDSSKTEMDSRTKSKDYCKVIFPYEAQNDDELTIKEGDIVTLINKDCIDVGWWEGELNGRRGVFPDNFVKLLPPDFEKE

[2] = target: T2, CIN85Δ57 (human, UniProt Q96B97 1-665, deletion of residues 369-425); assay: NMR titration; 15N-HSQC of 15 µM 15N-labeled SLP65_(1-330) with CIN85Δ57 added, without or with SUVs (phase-separated samples); peak intensity ratio over SLP65 only; 293 K; 20 mM HEPES pH 7.2, 100 mM NaCl, 1 mM TCEP
T2 construct: CIN85 (SH3KBP1), human, amplified with primers from the start ATG to the stop codon, residues 369-425 deleted; The tag and its cleavage follow only from 'Protein expression and purification was performed as described above'; also called trimeric CIN85Δ57; source: E. coli, modified pET28a vector, purified as the other constructs; not shown: His7, N-terminal, cleaved

[3] = target: T1, CIN85_(1-333); assay: NMR titration; 15N-HSQC of 60 µM 15N-labeled SLP65_(1-330) titrated with increasing amounts of unlabeled CIN85_(1-333); 293 K; 20 mM HEPES pH 7.2, 100 mM NaCl, 1 mM TCEP, 0.5 mM Pefabloc

B1: SLP65_(40-330), MTSL-tagged at C271 (domain or fragment, human, UniProt Q8WV28 40-330, looked up)
chain: KVKAPPSVPRRDYASESPADEEEQWSDDFDSDYENPDEHSDSEMYVMPAEENADDSYEPPPVEQETRPVHPALPFARGEYIDNRSSQRHSPPFSKTLPSKPSWPSEKARLTSTLPALTALQKPQVPPKPKGLLEDEADYVVPVEDNDENYIHPTESSSPPPEKAPMVNRSTKPNSSTPASPPGTASGRNSGAWETKSPPPAAPSPLPRAGKKPTTPLKTTPVASQQNASSVCEEKPIPAERHRGSSHRQEAVQSPVFPPAQKQIHQKPIPLPRFTEGGNPTVDGPLPSFSS
modifications: nitroxide spin label MTSL on C271
notes: SLP65 (BLNK), human, residues 40-330, naturally contains a single cysteine (C271); also called MTSL-tagged SLP65 constructs; source: E. coli BL21(DE3), purified (Ni-NTA, TEV cleavage, size exclusion); not shown: His7, N-terminal, cleaved
- binding result [1]: binds

B2: SLP65_(40-330) (C271A, S236C), MTSL-tagged (domain or fragment, human, UniProt Q8WV28 40-330, looked up)
chain: B1 chain with S197C, C232A
modifications: nitroxide spin label MTSL on the single cysteine (S236C)
notes: SLP65 (BLNK), human, residues 40-330; also called MTSL-tagged SLP65 constructs; source: E. coli BL21(DE3), purified (Ni-NTA, TEV cleavage, size exclusion); not shown: His7, N-terminal, cleaved
- binding result [1]: binds

B3: SLP65_(40-330) (C271A, Q302C), MTSL-tagged (domain or fragment, human, UniProt Q8WV28 40-330, looked up)
chain: B1 chain with C232A, Q263C
modifications: nitroxide spin label MTSL on the single cysteine (Q302C)
notes: as for B2
- binding result [1]: binds

Next, values leading:

- binding result [1]: binds
B4: SLP65_(40-330) (C271A, S141C), MTSL-tagged (domain or fragment, human, UniProt Q8WV28 40-330, looked up)
chain: B1 chain with S102C, C232A
modifications: nitroxide spin label MTSL on the single cysteine (S141C)
notes: as for B2

- binding result [2]: binds
- binding result [3]: binds
B5: SLP65_(1-330) (domain or fragment, human, UniProt Q8WV28 1-330, looked up)
chain: MDKLNKITVPASQKLRQLQKMVHDIKNNEGGIMNKIKKLKVKAPPSVPRRDYASESPADEEEQWSDDFDSDYENPDEHSDSEMYVMPAEENADDSYEPPPVEQETRPVHPALPFARGEYIDNRSSQRHSPPFSKTLPSKPSWPSEKARLTSTLPALTALQKPQVPPKPKGLLEDEADYVVPVEDNDENYIHPTESSSPPPEKAPMVNRSTKPNSSTPASPPGTASGRNSGAWETKSPPPAAPSPLPRAGKKPTTPLKTTPVASQQNASSVCEEKPIPAERHRGSSHRQEAVQSPVFPPAQKQIHQKPIPLPRFTEGGNPTVDGPLPSFSS
modifications: 15N-labeled
notes: SLP65 (BLNK), human, residues 1-330 (without the C-terminal SH2 domain); also called BLNK; Src homology (SH) 2 domain-containing leukocyte protein of 65 kDa; source: E. coli BL21(DE3), purified (Ni-NTA, TEV cleavage, size exclusion); not shown: His7, N-terminal, cleaved

From publication PMC7016142, “Tripartite phase separation of two signal effectors with vesicles priming B cell responsiveness” (Nature Communications, 2020)
